In the test the target is SARS-CoV-2 S receptor-binding domain (SRBD), residues 319-541 (SARS-CoV-2) (UniProt P0DTC2). Kind of test: ELISA on coated antigen. Background: ELISA stands for enzyme-linked immunosorbent assay.

Substance “rCR3022 (recombinant form of the cross-reactive SARS-CoV SRBD mAb CR3022) (antibody)” came in with an EC50 of 1.1 ng/mL.

By EC50 is commonly meant the concentration needed to bring the measured effect to its halfway point. The low end stands for higher potency in that assay, the high end for lower potency in that assay.

Source of the values: patent US20210300999A1.
